Test results reported in the supplement of paper PMC12042874.
± gives the uncertainty stated by the source.

Assay: amyloid nucleation score (Sup35N fusion, yeast selection) (log enrichment); library NNK2; higher = more nucleation; inactive = no reads after selection
Summary of the method: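 Random libraries were run with three technical output replicates. In each, psi-negative yeast expressing Sup35N fused to peptides of 20 random codons were induced 24 hours with 100 μM copper sulfate and grown 7 days at 30°C on medium lacking adenine and uracil, and input and output plasmid inserts were Illumina-sequenced. The nucleation score is the DiMSum log enrichment of output over input reads, centred on the mode score of non-aggregating sequences, and sequences under 100 input reads were excluded.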

Substance | amyloid nucleation score
VKLEMD | -0.617 ± 0.21
DSVIGSLCPNCYGWRISKVM | 0.081 ± 1.1
TPSRFWPMLFSVNLWLRGWL | 0.017 ± 0.62
KIKPLIIKNMCGNNTGPGIQ | inactive
RLGPSSWSWHL | 1.52 ± 0.29
KNSLKVLLNRRLRVCGSQLN | -0.309 ± 0.45
SCLSGFTIWQVSLRYCASFG | 0.312 ± 0.38
INNLRSCLSMY | 0.562 ± 0.57
AMQVVTVLNATACEMWAMGL | 7.498 ± 0.034
IKMRNPSSRSSASGQQRGHV | 0.167 ± 0.26
CEFQILSN | -0.381 ± 0.56
RPSFKKYFAGSSDTNGSGVC | -0.513 ± 0.64
LIFRAVWVVMSHHLTG | 0.039 ± 0.42
DRVSVVIAGDQKPEFRRGKR | -0.469 ± 0.45
RTTGTLLMRAESALPGRVVN | 5.762 ± 0.055
SMEVAFSELSKVKRTTCVDY | inactive
ESSFLLNHHT | -0.142 ± 0.79
FSRCTSVEV | -0.699 ± 1
RQEFNCIASCRF | 2.12 ± 0.091
ALRISQFCIL | -0.261 ± 1.1
DESIEYSDSGGSCSFPVSK | inactive
HPGMVVIAE | 3.97 ± 0.075
LVQCRNVSMNTILSIGGGKS | 6.17 ± 0.075
LGLRDELTVVVCWFRTYLIR | 4.634 ± 0.044

Substance | amyloid nucleation score
WGCQLRSMQTMTRHR | 0.949 ± 0.74
DRNPSGNSERPHVMPHPSVD | -0.146 ± 0.32
GRILNAEVFGVINASDNCAD | -0.412 ± 0.63
YYFFCVNGGHDMGAILNMLW | 6.94 ± 0.086
ELTTTTTYVRKVFCLYFS | 8.422 ± 0.047
IDLWWSATHVTLLLSAPGIY | -1.09 ± 0.42
PHLFFDTFV | 3.98 ± 0.087
VFFGLWRIVRGETSHFYRDE | -0.835 ± 0.27
FDLNSTVWIRCGGLILRLKP | 0.01 ± 0.25
VLPLGHWMAFMTREVCGADM | 0.514 ± 0.17
NPYTCMKTHYNRRNI | 3.41 ± 0.15
PSSYGWCMLFLVWDIQSTL | -0.829 ± 1
YYAGLVTSDWNTRSLGGMCE | -0.506 ± 1
SLIFSDPHLVIALNFT | 8.898 ± 0.061
YFKFFWNAQMLGCA | inactive
IYTWSIRIYRF | -0.778 ± 0.48
NALGRMCGSWRLVIHISDWW | 0.236 ± 0.23
STAFFSIIIVFFISTCRETP | -0.78 ± 0.63
HRVRSDDLVKAWPQWNALGA | 1.18 ± 0.12
KLTFTVMYTFCKVLSRDVAC | 3.1 ± 0.1
IIPQNSQDQNRDISVKAFSV | -0.937 ± 0.61
VHIMEDVMRRFCDRCTCRTW | 0.562 ± 0.44
LEYCDATLVVRDRQVSAVFL | 0.584 ± 0.35
LLFQVLPKMTSAPPSGWSTP | 0.547 ± 0.81

Substance | amyloid nucleation score
CADFSGLFG | inactive
GIMSSELLYYYVRISYESC | -1.21 ± 0.45
INLRMCGFYTSFDLNWRRKW | 4.981 ± 0.049
VYIVHVPSQFWL | 6.37 ± 0.08
RLLAVPLVRFRC | -0.23 ± 0.79
SFRDLDAAVEEV | -0.225 ± 0.48
QFRAWWFTSVDRTPSDNHTV | 4.99 ± 0.059
ARNPDFRCDSASI | -0.146 ± 1
SVFYIYWRSWLFFRSLGLFI | inactive
VWRPRTFLLIHYVVKDKRTP | -0.507 ± 0.79
PFVNVM | -0.047 ± 0.38
MYNRSRLSFA | -0.666 ± 1
TPGCF | inactive
FSSATDVCDGSRSIIRIAGA | -0.283 ± 1
RSLYVVFWIAGFEWGEIRVA | 0.822 ± 0.26
SENFLYLDVVFMCHSMIDRG | 0.131 ± 0.54
RLMDGYSSV | 0.548 ± 0.29
TGNTFIPSLFICRIEGSTSA | 0.506 ± 0.44
RKRRLMYLSGDNTQPFARLY | -0.686 ± 1.1
TVLGRGLILWDVGGLSE | -0.906 ± 0.34
VLCEQHGTGKHSISAEKGHR | 1.44 ± 0.41
FSFVTFSGNRFDFLLLRPCT | inactive
